Biological target: receptor for activated C kinase (RACK1), endogenous, HT-1080 cells (human) (UniProt P63244)
Test: cell-based or functional assay

Sequence of NHE6^527-588 peptide (pcDNA3-HA/NHE6^527-588) (Q92581 559-620): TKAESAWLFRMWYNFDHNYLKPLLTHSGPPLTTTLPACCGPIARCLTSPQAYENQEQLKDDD

NHE6^527-588 peptide (pcDNA3-HA/NHE6^527-588)
Fold (doxorubicin IC50 at 1% O2 against 21% O2): 1.6 fold
IC50 of doxorubicin, HT-1080 overexpressing the peptide, MTT viability, 1% O2: 224 nM
IC50 of doxorubicin, HT-1080 overexpressing the peptide, MTT viability, 21% O2: 137 nM
increase in drug sensitivity to Dox in cells exposed to hypoxia: 2.8 fold

Reference: patent US20180353525A1
